Source: paper PMC6318280, “A novel m^6A reader Prrc2a controls oligodendroglial specification and myelination” (Cell Research, 2018)

Target: T1, FLAG-Prrc2a-P2 (residue 761-1408) (mouse, UniProt Q7TSC1 761-1408)
T1 construct: Prrc2a p2 fragment, residue 761-1408, amplified from a mouse cDNA library; holds the region rich in glycine, arginine and glutamic acid (GRE domain); the legend of the pull-down names FLAG-Prrc2a-P2 beside P1, P3 and P4, which fits the proteins purified from HEK293T cells; also called P2 fragment; GRE domain; source: HEK293T, transfected, purified (FLAG beads, eluted with 3xFLAG peptide)
T1 sequence (Q7TSC1 761-1408): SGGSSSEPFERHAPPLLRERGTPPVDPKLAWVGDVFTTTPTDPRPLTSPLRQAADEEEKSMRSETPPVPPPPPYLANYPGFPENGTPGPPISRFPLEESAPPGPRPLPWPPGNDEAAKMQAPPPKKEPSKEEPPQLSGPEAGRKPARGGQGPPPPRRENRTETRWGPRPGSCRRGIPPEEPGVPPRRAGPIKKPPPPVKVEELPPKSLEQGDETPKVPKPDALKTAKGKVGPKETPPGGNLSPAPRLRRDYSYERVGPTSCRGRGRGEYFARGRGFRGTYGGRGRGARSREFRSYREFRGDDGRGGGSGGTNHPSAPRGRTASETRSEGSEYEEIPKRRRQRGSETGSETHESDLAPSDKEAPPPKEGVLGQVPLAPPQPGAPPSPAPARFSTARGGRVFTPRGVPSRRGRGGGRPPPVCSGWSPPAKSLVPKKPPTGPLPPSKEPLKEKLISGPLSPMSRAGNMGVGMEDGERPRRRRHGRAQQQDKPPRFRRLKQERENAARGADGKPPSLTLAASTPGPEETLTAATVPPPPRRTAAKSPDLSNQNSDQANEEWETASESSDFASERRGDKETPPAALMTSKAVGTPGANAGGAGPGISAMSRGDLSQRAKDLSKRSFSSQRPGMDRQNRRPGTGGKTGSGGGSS
Assay: pull-down; in vitro GST pull-down with purified GST-YTHDF2 and purified FLAG-Prrc2a fragments
Details: both partners purified

B1: GST-YTHDF2 (natural protein, human, UniProt Q9Y5A9 1-579, looked up)
chain: MSASSLLEQRPKGQGNKVQNGSVHQKDGLNDDDFEPYLSPQARPNNAYTAMSDSYLPSYYSPSIGFSYSLGEAAWSTGGDTAMPYLTSYGQLSNGEPHFLPDAMFGQPGALGSTPFLGQHGFNFFPSGIDFSAWGNNSSQGQSTQSSGYSSNYAYAPSSLGGAMIDGQSAFANETLNKAPGMNTIDQGMAALKLGSTEVASNVPKVVGSAVGSGSITSNIVASNSLPPATIAPPKPASWADIASKPAKQQPKLKTKNGIAGSSLPPPPIKHNMDIGTWDNKGPVAKAPSQALVQNIGQPTQGSPQPVGQQANNSPPVAQASVGQQTQPLPPPPPQPAQLSVQQQAAQPTRWVAPRNRGSGFGHNGVDGNGVGQSQAGSGSTPSEPHPVLEKLRSINNYNPKDFDWNLKHGRVFIIKSYSEDDIHRSIKYNIWCSTEHGNKRLDAAYRSMNGKGPVYLLFSVNGSGHFCGVAEMKSAVDYNTCAGVWSQDKWKGRFDVRWIFVKDVPNSQLRHIRLENNENKPVTNSRDTQEVPLEKAKQVLKIIASYKHTTSIFDDFSHYEKRQEEEESVKKERQGRGK
notes: human YTHDF2 gene subcloned into a pGEX expression vector with GST-tag; also called recombinant GST-YTHDF2; source: E. coli BL21 (DE3), purified (FPLC, Profinity GST cartridge)
binding result: binds
